Patent US7148202

Molecular target: FGF receptor on COS cells
Experiment: cell-based or functional assay

| Substance | transduction efficiency (GFP positive autofluorescent COS cells) against control phage MEGFP3 [fold] | phagemid particle-dependent transfection of COS-1 cells (fold molar excess) |
| --- | --- | --- |
| FGF2 display phage MF2/1G3 (FGF2-pIII fusion on M13 type 3 phage) (from UniProt P09038 2-155; P69168 19-424) | 10 |  |
| free FGF2 (non-biotinylated) (from UniProt P09038 2-155) (ligand) |  | 100 |
